No end group written: not given here. *: point of attachment. Biotin = O=C1N[C@H]2[C@H](CS[C@H]2CCCCC(=O)*)N1
How the values were obtained:
[1] = target: T1, Duffy Antigen Receptor for Chemokines (DARC) (human, UniProt Q16570 1-336); test: Table 18, DARC binding; ns = not significantly different from control
T1 construct: whole, on cells
T1 sequence (looked up): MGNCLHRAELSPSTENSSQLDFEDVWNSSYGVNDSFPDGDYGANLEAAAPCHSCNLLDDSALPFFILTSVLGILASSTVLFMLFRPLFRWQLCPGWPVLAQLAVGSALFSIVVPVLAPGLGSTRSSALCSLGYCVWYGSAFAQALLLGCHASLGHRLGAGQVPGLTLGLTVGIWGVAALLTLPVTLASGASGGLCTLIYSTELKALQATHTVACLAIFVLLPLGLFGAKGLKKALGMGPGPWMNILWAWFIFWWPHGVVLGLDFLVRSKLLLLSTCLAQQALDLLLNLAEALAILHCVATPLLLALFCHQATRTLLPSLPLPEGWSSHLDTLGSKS

[2] = target: T1, Duffy Antigen Receptor for Chemokines …; test: competition binding analysis using red blood cells; given as affinity
[3] = target: T1, Duffy Antigen Receptor for Chemokines …; test: Duffy binding; kind of constant not named
[4] = target: T1, Duffy Antigen Receptor for Chemokines …; test: ka for binding to red blood cells divided by ka for binding to THP-1 cells
[5] = target: T1, Duffy Antigen Receptor for Chemokines …; test: DARC binding on red blood cells; printed as Duffy affinity
[6] = target: T1, Duffy Antigen Receptor for Chemokines …; test: estimated ka for binding to red blood cells divided by average inhibitory ED50 in THP-1 migration
CXCR4 = target: T2, CXCR4 (human, UniProt P61073 1-352); test: biotin-labeled peptide on receptor-expressing cell lines, 125I-streptavidin
T2 construct: whole, on cells
T2 sequence (P61073 whole entry): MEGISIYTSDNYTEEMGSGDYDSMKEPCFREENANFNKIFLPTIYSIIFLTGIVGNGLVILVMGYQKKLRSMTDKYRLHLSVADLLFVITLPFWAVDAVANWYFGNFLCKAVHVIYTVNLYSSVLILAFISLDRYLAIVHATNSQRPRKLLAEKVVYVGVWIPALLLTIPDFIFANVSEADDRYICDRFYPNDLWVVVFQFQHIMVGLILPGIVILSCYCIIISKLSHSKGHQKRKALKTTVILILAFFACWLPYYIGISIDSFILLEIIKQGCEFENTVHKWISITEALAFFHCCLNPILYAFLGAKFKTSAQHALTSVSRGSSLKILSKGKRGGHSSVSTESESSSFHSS

CXCR2 = target: T3, CXCR2 (human, UniProt P25025 1-360); test: as above
T3 construct: whole, on cells
T3 sequence (looked up): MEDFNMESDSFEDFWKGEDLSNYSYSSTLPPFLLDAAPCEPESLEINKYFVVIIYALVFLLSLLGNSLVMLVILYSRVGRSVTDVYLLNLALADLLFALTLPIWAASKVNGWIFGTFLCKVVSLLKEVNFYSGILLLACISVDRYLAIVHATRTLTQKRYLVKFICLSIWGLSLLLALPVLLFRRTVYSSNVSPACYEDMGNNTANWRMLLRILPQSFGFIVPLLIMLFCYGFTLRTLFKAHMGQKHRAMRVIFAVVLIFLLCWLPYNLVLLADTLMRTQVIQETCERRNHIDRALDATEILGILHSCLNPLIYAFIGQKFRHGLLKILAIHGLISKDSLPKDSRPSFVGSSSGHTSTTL

CCR1 = target: T4, CCR1 (human, UniProt P32246 1-355); test: as above
T4 construct: whole, on cells
T4 sequence (looked up): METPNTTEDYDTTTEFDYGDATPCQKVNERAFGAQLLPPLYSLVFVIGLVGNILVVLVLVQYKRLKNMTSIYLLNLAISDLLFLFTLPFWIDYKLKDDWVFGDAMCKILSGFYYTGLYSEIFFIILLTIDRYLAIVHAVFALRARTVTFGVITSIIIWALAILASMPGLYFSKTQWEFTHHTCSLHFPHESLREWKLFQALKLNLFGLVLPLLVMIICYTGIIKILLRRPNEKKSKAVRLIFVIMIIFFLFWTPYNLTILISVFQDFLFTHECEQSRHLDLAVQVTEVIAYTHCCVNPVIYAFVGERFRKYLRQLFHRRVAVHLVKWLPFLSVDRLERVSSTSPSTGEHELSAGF

CXCR1 = target: T5, CXCR1 (human, UniProt P25024 1-350); test: as above
T5 construct: whole, on cells
T5 sequence (looked up): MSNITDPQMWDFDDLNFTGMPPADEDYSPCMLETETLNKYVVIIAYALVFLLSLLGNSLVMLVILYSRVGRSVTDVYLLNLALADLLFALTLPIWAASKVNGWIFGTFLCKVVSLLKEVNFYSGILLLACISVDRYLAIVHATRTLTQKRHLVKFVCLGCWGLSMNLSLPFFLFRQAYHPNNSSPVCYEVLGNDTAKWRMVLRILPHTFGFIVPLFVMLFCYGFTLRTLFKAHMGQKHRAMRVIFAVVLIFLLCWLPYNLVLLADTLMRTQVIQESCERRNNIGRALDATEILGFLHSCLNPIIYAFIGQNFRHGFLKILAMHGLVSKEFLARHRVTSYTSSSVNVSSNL

CCR5 = target: T6, CCR5 (human, UniProt P51681 1-352); test: as above
T6 construct: whole, on cells
T6 sequence (P51681 whole entry): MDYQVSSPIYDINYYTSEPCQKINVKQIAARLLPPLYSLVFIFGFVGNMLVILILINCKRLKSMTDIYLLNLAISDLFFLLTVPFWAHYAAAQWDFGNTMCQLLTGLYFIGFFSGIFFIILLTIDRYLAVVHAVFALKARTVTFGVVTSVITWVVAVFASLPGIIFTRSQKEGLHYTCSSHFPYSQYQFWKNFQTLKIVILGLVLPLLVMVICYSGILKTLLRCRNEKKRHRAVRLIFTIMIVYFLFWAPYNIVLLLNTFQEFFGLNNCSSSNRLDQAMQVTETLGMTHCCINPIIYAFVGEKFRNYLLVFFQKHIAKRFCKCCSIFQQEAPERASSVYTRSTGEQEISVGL

CCR2 = target: T7, CCR2 (human, UniProt P41597 1-374); test: as above
T7 construct: whole, on cells
T7 sequence (P41597 whole entry): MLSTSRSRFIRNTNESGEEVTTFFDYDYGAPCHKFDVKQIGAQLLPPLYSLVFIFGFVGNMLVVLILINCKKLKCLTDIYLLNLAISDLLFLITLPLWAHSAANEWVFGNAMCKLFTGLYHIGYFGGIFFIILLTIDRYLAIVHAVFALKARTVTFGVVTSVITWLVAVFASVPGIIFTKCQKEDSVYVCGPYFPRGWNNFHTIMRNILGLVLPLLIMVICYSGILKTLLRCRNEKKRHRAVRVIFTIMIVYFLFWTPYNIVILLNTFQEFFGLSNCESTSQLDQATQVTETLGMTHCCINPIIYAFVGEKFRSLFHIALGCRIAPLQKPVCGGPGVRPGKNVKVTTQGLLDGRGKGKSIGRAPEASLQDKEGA

CCR3 = target: T8, CCR3 (human, UniProt P51677 1-355); test: as above
T8 construct: whole, on cells
T8 sequence (looked up): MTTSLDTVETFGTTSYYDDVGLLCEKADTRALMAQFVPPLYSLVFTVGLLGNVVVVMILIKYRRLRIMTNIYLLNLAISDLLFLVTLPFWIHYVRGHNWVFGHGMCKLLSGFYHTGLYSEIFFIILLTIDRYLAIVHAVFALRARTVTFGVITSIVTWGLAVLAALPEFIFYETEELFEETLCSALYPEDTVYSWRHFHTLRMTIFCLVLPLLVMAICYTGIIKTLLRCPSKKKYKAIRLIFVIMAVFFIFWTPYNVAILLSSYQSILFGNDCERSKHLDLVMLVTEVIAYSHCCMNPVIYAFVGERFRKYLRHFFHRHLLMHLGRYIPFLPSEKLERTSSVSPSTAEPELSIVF

CCR4 = target: T9, CCR4 (human, UniProt P51679 1-360); test: as above
T9 construct: whole, on cells
T9 sequence (looked up): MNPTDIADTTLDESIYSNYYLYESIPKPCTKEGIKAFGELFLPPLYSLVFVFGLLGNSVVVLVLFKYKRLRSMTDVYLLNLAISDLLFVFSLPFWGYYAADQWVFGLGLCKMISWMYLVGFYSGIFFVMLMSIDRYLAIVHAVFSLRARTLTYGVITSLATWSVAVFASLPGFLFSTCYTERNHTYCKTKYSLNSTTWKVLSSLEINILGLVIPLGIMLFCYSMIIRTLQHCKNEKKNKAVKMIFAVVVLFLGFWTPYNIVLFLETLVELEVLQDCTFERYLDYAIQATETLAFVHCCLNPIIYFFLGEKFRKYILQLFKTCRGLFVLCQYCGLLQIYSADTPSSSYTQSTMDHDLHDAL

CSKPGV: no binding [1].

DYFETSSQC: no binding [1].

B1: Peptide 2(1-15)[MCP-1] (peptide)
peptide: SYRRITSSKCPKEAV
notes: also called Pep2[MCP1]; Pep2(1-15)[MCP1]
B1 was tested, and the Kd [2] was < 0.5 µM, the Kd [3] was 100 µM and the Duffy selectivity [4] was 0.18 ratio.

ELRVIESGPHCANTEI (also called Pep2[IL8]) [Pep2(1-16)[IL8]] was tested, and the Duffy selectivity [4] was < 1 ratio.

SYRRITSSK [Peptide 2(1-9)[MCP-1]] showed a Kd [5] of ~50 µM.

B2: Leu4Ile11peptide 3(1-12)[MCP-1] (peptide)
peptide: EICLDPKQKWIQ
notes: also called Leu4Ile11pep3; Leu4Ile11peptide 3[MCP-1]
B2 gave a Duffy selectivity [6] of 37.8 ratio.

B3: Pep2(1-14)[MIP1α] (peptide)
peptide: DYFETSSQCSKPGV
notes: Called peptide 2(1-15)[MIP1α]; also called Pep2[MIP1α]; peptide 2(1-15)[MIP1-α]
B3 was tested, and the Duffy selectivity [4] was > 100 ratio.

In the case of Biotin-CLDPKQKWIQC (cysteine pairing not given here, also called biotinylated peptide) [N-terminal biotin conjugate of the sequence n'-CLDPKQKWIQC-c'], the Kd (CXCR4) is reported as > 10 µM, the Kd (CXCR2) is reported as > 10 µM and the Kd (CCR1) is reported as > 10 µM. The Kd (CXCR1) was > 10 µM, the Kd (CCR5) was > 10 µM and the Kd (CCR2) was > 10 µM. The Kd (CCR3) was > 10 µM and the Kd (CCR4) was > 10 µM.

Source: patent publication EP2386565A2 (Cambridge Enterprise Ltd., dated 2000)
